Reference: PMC11096365, “Cryo-EM structures of the human Elongator complex at work” (Nature Communications, 2024)

Legend:
[1] = target: T1, human ELP123 (Homo sapiens, UniProt Q9H9T3); experiment: cryo-EM structure ([…] Å); assay type: binding; details: with tRNA-GlnUUG and SAM; KAT domain of ELP3; pH 7.5; hydrolysis induced by tRNA
T1 construct: gene ELP3; recombinant ELP123 subcomplex (1:1:1, two lobes), codon-optimized ORFs, C-terminal Twin-Strep-Tag on ELP3, insect cells (SuperSf9-3); ELP1 148 kDa, ELP2 93 kDa, ELP3-TST 65 kDa; with Elongator complex protein 1; Elongator complex protein 2
T1 sequence (Q9H9T3 1-547): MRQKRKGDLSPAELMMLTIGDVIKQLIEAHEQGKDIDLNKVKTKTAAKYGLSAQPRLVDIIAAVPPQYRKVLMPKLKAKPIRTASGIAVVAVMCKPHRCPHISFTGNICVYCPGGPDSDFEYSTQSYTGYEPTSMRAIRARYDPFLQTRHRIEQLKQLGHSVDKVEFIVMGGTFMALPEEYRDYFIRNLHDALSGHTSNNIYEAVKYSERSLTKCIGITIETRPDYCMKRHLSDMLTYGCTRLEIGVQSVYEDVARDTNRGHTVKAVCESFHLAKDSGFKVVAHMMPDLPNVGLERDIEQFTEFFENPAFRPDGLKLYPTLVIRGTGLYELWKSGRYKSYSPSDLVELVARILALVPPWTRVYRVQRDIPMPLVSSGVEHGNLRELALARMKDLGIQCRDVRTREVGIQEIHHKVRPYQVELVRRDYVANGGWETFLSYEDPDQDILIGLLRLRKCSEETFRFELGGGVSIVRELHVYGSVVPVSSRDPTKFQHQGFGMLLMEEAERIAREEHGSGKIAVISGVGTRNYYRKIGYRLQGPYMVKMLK
T1 sequence (O95163 1-1332 partner): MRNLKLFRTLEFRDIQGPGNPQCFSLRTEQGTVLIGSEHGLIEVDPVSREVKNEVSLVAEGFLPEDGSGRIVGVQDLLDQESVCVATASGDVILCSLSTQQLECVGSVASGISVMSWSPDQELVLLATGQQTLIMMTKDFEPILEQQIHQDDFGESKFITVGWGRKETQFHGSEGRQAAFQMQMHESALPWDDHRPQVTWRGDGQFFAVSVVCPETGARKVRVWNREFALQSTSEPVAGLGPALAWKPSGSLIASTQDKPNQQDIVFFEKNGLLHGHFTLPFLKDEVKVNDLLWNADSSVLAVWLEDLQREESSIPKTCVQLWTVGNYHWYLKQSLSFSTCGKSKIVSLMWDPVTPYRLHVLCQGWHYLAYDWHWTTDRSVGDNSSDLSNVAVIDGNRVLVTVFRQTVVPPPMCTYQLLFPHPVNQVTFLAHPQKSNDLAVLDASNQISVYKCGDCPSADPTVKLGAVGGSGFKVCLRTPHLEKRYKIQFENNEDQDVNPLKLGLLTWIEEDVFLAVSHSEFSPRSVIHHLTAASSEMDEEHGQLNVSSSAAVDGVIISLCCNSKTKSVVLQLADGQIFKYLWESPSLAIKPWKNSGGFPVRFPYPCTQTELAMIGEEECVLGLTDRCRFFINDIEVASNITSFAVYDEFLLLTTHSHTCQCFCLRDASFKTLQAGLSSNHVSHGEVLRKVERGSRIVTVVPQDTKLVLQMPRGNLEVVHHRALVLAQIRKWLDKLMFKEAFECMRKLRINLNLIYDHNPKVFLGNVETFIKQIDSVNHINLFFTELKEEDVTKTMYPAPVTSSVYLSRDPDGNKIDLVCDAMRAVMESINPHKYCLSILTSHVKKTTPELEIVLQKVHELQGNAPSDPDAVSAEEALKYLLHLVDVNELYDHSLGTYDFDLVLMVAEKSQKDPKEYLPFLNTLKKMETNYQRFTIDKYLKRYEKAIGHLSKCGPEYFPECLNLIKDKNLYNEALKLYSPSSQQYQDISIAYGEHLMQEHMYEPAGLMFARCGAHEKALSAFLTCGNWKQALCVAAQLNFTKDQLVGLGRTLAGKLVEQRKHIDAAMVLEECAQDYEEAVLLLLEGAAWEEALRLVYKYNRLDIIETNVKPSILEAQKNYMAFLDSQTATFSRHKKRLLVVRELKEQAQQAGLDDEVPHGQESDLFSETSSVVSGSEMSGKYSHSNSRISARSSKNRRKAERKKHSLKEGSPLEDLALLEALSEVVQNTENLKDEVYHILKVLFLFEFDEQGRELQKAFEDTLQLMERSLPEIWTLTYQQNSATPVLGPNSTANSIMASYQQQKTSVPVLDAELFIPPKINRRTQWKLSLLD
T1 sequence (Q6IA86 1-826 partner): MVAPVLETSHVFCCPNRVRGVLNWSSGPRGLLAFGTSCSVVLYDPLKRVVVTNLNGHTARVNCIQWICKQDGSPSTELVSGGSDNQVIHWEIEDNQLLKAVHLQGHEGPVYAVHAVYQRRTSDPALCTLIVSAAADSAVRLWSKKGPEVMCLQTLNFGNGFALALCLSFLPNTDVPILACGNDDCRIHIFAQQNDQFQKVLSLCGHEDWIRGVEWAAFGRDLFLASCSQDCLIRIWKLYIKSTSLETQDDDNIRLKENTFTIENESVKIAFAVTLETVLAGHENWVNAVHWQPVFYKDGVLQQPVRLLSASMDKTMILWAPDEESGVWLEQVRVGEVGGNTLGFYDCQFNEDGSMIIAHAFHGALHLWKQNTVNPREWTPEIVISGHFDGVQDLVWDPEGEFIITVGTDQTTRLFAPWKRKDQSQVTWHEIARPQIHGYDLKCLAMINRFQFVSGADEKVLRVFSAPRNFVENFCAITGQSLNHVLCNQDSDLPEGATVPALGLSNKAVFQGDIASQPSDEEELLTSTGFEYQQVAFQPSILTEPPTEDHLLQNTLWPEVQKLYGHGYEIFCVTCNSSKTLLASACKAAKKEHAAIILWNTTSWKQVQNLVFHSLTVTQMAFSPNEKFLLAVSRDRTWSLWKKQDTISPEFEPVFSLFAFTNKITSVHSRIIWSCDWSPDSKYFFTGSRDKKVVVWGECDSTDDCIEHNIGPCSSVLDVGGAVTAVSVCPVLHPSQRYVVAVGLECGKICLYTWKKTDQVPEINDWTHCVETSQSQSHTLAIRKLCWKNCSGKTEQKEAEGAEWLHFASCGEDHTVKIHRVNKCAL

[2] = target: ELP1;ELP2;ELP3 K164A (Homo sapiens;Homo sapiens;Homo sapiens, UniProt O95163;Q6IA86;Q9H9T3 1-1332;1-826;1-547, ||K164A); experiment: MST; MST: 20 mM HEPES pH 7.5, 100 mM NaCl, 5 mM DTT, 0.05% Tween 20; incubated at 4 C 30 min, measured at 25 C; Cy5-tRNA 14 or 30 nM. Cryo-EM: 20 mM HEPES pH 7.5, 100 mM NaCl, 2 mM MgCl2, 2 mM DTT; details: protein: recombinant;recombinant;recombinant; tags: ;;C-terminal Twin-Strep-Tag; chain copies: 2;2;2; label: internal Cy5 (5% Cy5-CTP) for MST; tRNA fold
[3] = target: ELP1;ELP2;ELP3 R242K (Homo sapiens;Homo sapiens;Homo sapiens, UniProt O95163;Q6IA86;Q9H9T3 1-1332;1-826;1-547, ||R242K); experiment: as above; details: protein: recombinant;recombinant;recombinant; tags: ;;C-terminal Twin-Strep-Tag; chain copies: 2;2;2; label: internal Cy5 (5% Cy5-CTP) for MST; tRNA fold
[4] = target: ELP1;ELP2;ELP3 Y529A/Y530A (Homo sapiens;Homo sapiens;Homo sapiens, UniProt O95163;Q6IA86;Q9H9T3 1-1332;1-826;1-547, ||Y529A;Y530A); experiment: as above; details: protein: recombinant;recombinant;recombinant; tags: ;;C-terminal Twin-Strep-Tag; chain copies: 2;2;2; label: internal Cy5 (5% Cy5-CTP) for MST; tRNA fold
Sequence of ELP1;ELP2;ELP3 Y529A/Y530A (Q9H9T3 whole entry Y529A/Y530A, chain 3 of 3, one chain of several): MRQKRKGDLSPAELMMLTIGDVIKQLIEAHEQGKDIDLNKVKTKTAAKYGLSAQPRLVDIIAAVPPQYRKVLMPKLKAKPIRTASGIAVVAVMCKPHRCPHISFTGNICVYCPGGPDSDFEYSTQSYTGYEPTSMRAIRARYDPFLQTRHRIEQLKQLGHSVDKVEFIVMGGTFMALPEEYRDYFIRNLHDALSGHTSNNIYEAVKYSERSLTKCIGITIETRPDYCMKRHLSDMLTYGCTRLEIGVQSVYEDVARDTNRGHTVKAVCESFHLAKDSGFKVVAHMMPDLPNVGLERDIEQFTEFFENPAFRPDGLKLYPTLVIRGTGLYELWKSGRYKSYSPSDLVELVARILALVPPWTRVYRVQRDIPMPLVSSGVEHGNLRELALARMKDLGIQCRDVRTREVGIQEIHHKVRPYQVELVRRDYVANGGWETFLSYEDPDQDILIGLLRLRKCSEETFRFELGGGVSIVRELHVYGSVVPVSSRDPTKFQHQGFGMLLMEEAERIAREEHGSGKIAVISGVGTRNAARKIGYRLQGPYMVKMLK

[5] = target: ELP1;ELP2;ELP3 wild type (Homo sapiens;Homo sapiens;Homo sapiens, UniProt O95163;Q6IA86;Q9H9T3 1-1332;1-826;1-547, ||); experiment: as above; details: protein: recombinant;recombinant;recombinant; tags: ;;C-terminal Twin-Strep-Tag; chain copies: 2;2;2; label: internal Cy5 (5% Cy5-CTP) for MST; tRNA fold
[6] = target: ELP1;ELP2;ELP3 E474A (Homo sapiens;Homo sapiens;Homo sapiens, UniProt O95163;Q6IA86;Q9H9T3 1-1332;1-826;1-547, ||E474A); experiment: as above; details: protein: recombinant;recombinant;recombinant; tags: ;;C-terminal Twin-Strep-Tag; chain copies: 2;2;2; label: internal Cy5 (5% Cy5-CTP) for MST; tRNA fold
[7] = target: ELP1;ELP2;ELP3 R402T (Homo sapiens;Homo sapiens;Homo sapiens, UniProt O95163;Q6IA86;Q9H9T3 1-1332;1-826;1-547, ||R402T); experiment: as above; details: protein: recombinant;recombinant;recombinant; tags: ;;C-terminal Twin-Strep-Tag; chain copies: 2;2;2; label: internal Cy5 (5% Cy5-CTP) for MST; tRNA fold
[8] = target: ELP1;ELP2;ELP3 Y363A (Homo sapiens;Homo sapiens;Homo sapiens, UniProt O95163;Q6IA86;Q9H9T3 1-1332;1-826;1-547, ||Y363A); experiment: as above; details: protein: recombinant;recombinant;recombinant; tags: ;;C-terminal Twin-Strep-Tag; chain copies: 2;2;2; label: internal Cy5 (5% Cy5-CTP) for MST; tRNA fold
[9] = target: ELP1;ELP2;ELP3 K280A (Homo sapiens;Homo sapiens;Homo sapiens, UniProt O95163;Q6IA86;Q9H9T3 1-1332;1-826;1-547, ||K280A); experiment: as above; details: protein: recombinant;recombinant;recombinant; tags: ;;C-terminal Twin-Strep-Tag; chain copies: 2;2;2; label: internal Cy5 (5% Cy5-CTP) for MST; tRNA fold
[10] = target: ELP1;ELP2;ELP3 H476A (Homo sapiens;Homo sapiens;Homo sapiens, UniProt O95163;Q6IA86;Q9H9T3 1-1332;1-826;1-547, ||H476A); experiment: as above; details: protein: recombinant;recombinant;recombinant; tags: ;;C-terminal Twin-Strep-Tag; chain copies: 2;2;2; label: internal Cy5 (5% Cy5-CTP) for MST; tRNA fold

CC(=O)SCCNC(=O)CCNC(=O)[C@H](O)C(C)(C)COP(=O)(O)OP(=O)(O)OC[C@H]1O[C@@H](n2cnc3c(N)ncnc32)[C@H](O)[C@@H]1OP(=O)(O)O [acetyl-CoA]
cryo-EM structure (2.87 Å) [1]: well-resolved ligand density that unambiguously fits a complete acetyl-CoA molecule

B1: tRNAGlnUUG (structured_RNA)
RNA: GGCCCCAUGGUGUAAUGGUUAGCACUCUGGACUUUGAAUCCAGCGAUCCGAGUUCAAAUCUCGGUGGGACCUCCA
binding result [2]: binds | binding result [3]: binds | Kd [4]: 94.7 ± 5.2 nM | Kd [5]: 37.6 ± 5.3 nM | binding result [6]: binds | binding result [7]: binds | binding result [8]: binds | binding result [9]: binds | binding result [10]: binds
